Results on one molecule are retold here after doi:10.1101/438903.

One may read the Kd as the concentration at which binding is half-saturated. A lower Kd goes with higher affinity.

The experiment has as its target DY-547P1 labelled NDC80-C Bonsai (ΔHec1 1-80). As to the kind of experiment: MST.

B1: MPS1^WT (1xNTE, residues 1-808), recombinant from insect cells (enzyme)
chain: MESEDLSGRELTIDSIMNKVRDIKNKFKNEDLTDELSLNKISADTTDNSGTVNQIMMMANNPEDWLSLLLKLEKNSVPLSDALLNKLIGRYSQAIEALPPDKYGQNESFARIQVRFAELKAIQEPDDARDYFQMARANCKKFAFVHISFAQFELSQGNVKKSKQLLQKAVERGAVPLEMLEIALRNLNLQKKQLLSEEEKKNLSASTVLTAQESFSGSLGHLQNRNNSCDSRGQTTKARFLYGENMPPQDAEIGYRNSLRQTNKTKQSCPFGRVPVNLLNSPDCDVKTDDSVVPCFMKRQTSRSECRDLVVPGSKPSGNDSCELRNLKSVQNSHFKEPLVSDEKSSELIITDSITLKNKTESSLLAKLEETKEYQEPEVPESNQKQWQSKRKSECINQNPAASSNHWQIPELARKVNTEQKHTTFEQPVFSVSKQSPPISTSKWFDPKSICKTPSSNTLDDYMSCFRTPVVKNDFPPACQLSTPYGQPACFQQQQHQILATPLQNLQVLASSSANECISVKGRIYSILKQIGSGGSSKVFQVLNEKKQIYAIKYVNLEEADNQTLDSYRNEIAYLNKLQQHSDKIIRLYDYEITDQYIYMVMECGNIDLNSWLKKKKSIDPWERKSYWKNMLEAVHTIHQHGIVHSDLKPANFLIVDGMLKLIDFGIANQMQPDTTSVVKDSQVGTVNYMPPEAIKDMSSSRENGKSKSKISPKSDVWSLGCILYYMTYGKTPFQQIINQISKLHAIIDPNHEIEFPDIPEKDLQDVLKCCLKRDPKQRISIPELLAHPYVQIQTHPVNQMAKGTTEE
In turn, B1 showed an equilibrium dissociation constant (Kd) of 300 nM.
